US20240025993A1, “CD19 BINDING MOLECULES AND USES THEREOF” (NOVARTIS AG, priority 2020, published 2024)
Blank lines part the entries; values can stand above or below the molecule they belong to.

Legend:
[1] = tested on: T cells co-cultured with OCI-LY-19, Karpas422 or Toledo target cells; assay: TBM and BBM mediated T cell proliferation (Example 20); type: cell-based, human; details: OCI-LY-19, Karpas422, Toledo co-culture; E:T 1:3, 96 hrs, 2.5 nM-0.0006 nM; H variants
Experimental: Briefly, OCI-LY-19, Karpas422, and Toledo target cells stably expressing firefly luciferase were plated in a 96 well plate in T Cell Media (TCM) (RPMI-1640, ThermoFisher Scientific, Cat #11875-085), 10% FBS (Seradigm, Cat #1500-500), 1% L-Glutamine (Thermo Fisher Scientific, Cat #25830-081), 1% Non Essential Amino Acids (Thermo Fisher Scientific, Cat #11140-050),1% Pen/Strep (Thermo Fisher Scientific, Cat #15070063), 1% HEPES (Thermo Fisher Scientific, Cat #15630080), Sodium Pyruvate (Thermo Fisher Scientific, Cat #11360-070), 0.1% Beta-mercaptoethanol (Thermo Fisher Scientific, Cat #21985-023)]. PBMCs previously isolated and cryopreserved from 2 Leukopak donors were thawed and Pan T cells were isolated (as described earlier). Isolated T cells were labelled with 5 μM Cell Trace Violet (CTV) (Thermo Fisher Scientific, Cat #C34557) following the manufacturer's protocol and were co-cultured with target cells at an E:T ratio of 1:3. A dilution series of CD3med TSP1, CD3hi TSP1, CD3hi BSP1, CD3hi TSP1C, and blinatumomab ranging from 2.5 nM-0.0006 nM was added to cells and the plates were incubated in a 5% CO2, 37° C. incubator for 96 hrs. […]

[2] = tested on: Jurkat NFAT luciferized (JNL) cells with THP-1 cells; assay: Anti-CD3 NFAT signalling assay, JNL + THP-1 cells (Example 36); type: cell-based, human; details: THP-1 cells preincubated with IFNg (100 u/mL, 48 hours)
Experimental: Jurkat reporter gene assay (RGA) for the nuclear factor of activated T-cells (NFAT) pathway was performed using Jurkat NFAT luciferized (JNL) cells and THP-1 cells (ATCC, TIB202). THP-1 cells express FcγRI, FcγRII, and FcγRIII. Cells were co-incubated for 6 hours at 37° C., 5% CO2 at a 5:1 effector to tumor ratio with each sample at the various concentrations depicted. An equal volume of ONE-Glo™ reagent (Promega, E6110) was added to the culture volume. Plate was shaken for 2 minutes, then incubated for an additional 8 minutes protected from light. For JNL+ THP+IFNg experiment, THP-1 cells were pre-treated with 100 u/mL IFNg for 48 hours at 37° C., 5% CO2 before co-culture. IFNg stimulation increases FcγRI expression. Luciferase activity was quantitated on the EnVision plate reader (PerkinElmer). Data was analyzed and fit to a 5 parameter-logistic curve using GraphPad Prism.

[3] = Aggregation propensity (% HMW) by analytical SEC of IgG1 anti-CD3 antibody and Fc variants (Example 35); type: physicochemical; details: PBS pH 7.4, anti-CD3 antibodies
Experimental: Size exclusion chromatography measurements were performed to evaluate the aggregation propensity (% HMW) of IgG1 antibody and Fc modified derivatives. The produced and purified anti CD3 antibodies were applied to an analytical size exclusion chromatography column (SEC 200, GE Healthcare), equilibrated with PBS buffer pH 7.4.

[4] = Differential scanning calorimetry, melting temperature of Fc modified anti-CD3 antibodies (Example 35); type: physicochemical; details: DSC, 1 mg/ml in PBS pH 7.4, anti-CD3 IgG1 Fc variants
Experimental: Calorimetric measurements were carried out on a differential scanning micro calorimeter (Nano DSC, TA instruments). The cell volume was 0.5 ml and the heating rate was 1° C./min. All proteins were used at a concentration of 1 mg/m in PBS (pH 7.4). The molar heat capacity of each protein was estimated by comparison with duplicate samples containing identical buffer from which the protein had been omitted. The partial molar heat capacities and melting curves were analyzed using standard procedure. Thermograms were baseline corrected and concentration normalized.

human FcγR1A = human FcγR1A (Homo sapiens, UniProt P12314); assay: SPR binding of Fc modified anti-CD3 IgG1 antibodies (Example 34); details: anti-CD3 IgG1 antibody immobilized
Chain of human FcγR1A (P12314 16-374): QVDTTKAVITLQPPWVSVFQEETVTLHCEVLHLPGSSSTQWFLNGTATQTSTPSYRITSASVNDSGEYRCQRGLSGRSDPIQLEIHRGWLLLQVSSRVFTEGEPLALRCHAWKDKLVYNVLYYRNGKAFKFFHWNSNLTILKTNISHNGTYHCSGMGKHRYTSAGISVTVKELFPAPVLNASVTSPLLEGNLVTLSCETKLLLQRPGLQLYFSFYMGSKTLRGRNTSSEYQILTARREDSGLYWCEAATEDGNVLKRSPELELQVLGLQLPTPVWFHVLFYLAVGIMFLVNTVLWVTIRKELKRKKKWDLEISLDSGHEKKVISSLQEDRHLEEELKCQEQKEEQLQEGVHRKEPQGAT
Experimental: Surface plasmon resonance (SPR) experiments were performed to analyze the interaction of human activating receptors FcγR1A, FcγR3A (V158) and human C1q with IgG1 WT and antibody-Fc variants. Binding kinetics and their relative binding affinities were explored. The binding affinity is an important characteristic of an interaction between an antibody and an antigen. The equilibrium dissociation constant (KD) defines how strong the interaction is and therefore how much antibody-antigen complex is formed at equilibrium.
The knowledge of the antibody characteristics is not only essential during selection of the best therapeutic antibody candidate, but also important to understand the in vivo behavior and potentially predict cellular immune responses. […] Binding to human C1q was evaluated. […] SPR measurements were measured on a Biacore T200 (GE-Healthcare Life Sciences) controlled by Biacore T200 control software version 2.0.1. […]
The antibodies were covalently immobilized on a CM5 sensor chip whereas Fc gamma receptors or human C1q served as analytes in solution (FIG. 38). […] Zero concentration samples (blank runs) were measured for both methods to allow double-referencing during data evaluation.
Data were evaluated using the Biacore T200 evaluation software. […] In addition, the maximum response reached during the experiment was monitored. […]

B1: CD3hi TSP1C: TBM corresponding to CD3hi TSP1 but with a lysozyme binding arm in place of the CD19 binding arm; control antibody (antibody)
heavy: QVQLQQSGPGLVKPSQTLSLTCAISGDSVSSNSAAWSWIRQSPGRGLEWLGRIYYRSKWYNDYAVSVKSRITINPDTSKNQFSLQLNSVTPEDTAVYYCARLDHRYHEDTVYPGMDVWGQGTLVTVSSASTKGPSVFPLAPSSKSTSGGTAALGCLVKDYFPEPVTVSWNSGALTSGVHTFPAVLQSSGLYSLSSVVTVPSSSLGTQTYICNVNHKPSNTKVDKRVEPKSCGGGGSGGGGSEVQLVESGGGLVQPGGSLKLSCAASGFTFNTYAMNWVRQASGKGLEWVGRIRSKYNNYATYYADSVKDRFTISRDDSKSTLYLQMNSLKTEDTAVYYCVRHGNFGNSYVSWFAYWGQGTLVTVSSGGGGSGGGGSGGGGSGGGGSQAVVTQEPSLTVSPGGTVTLTCRSSTGAVTTSNYANWVQQKPGQAPRGLIGGTNKRAPWTPARFSGSLLGDKAALTLSGAQPEDEAEYFCALWYSNLWVFGGGTKLTVLGGGGSDKTHTCPPCPAPELLGGPSVFLFPPKPKDTLMISRTPEVTCVVVAVSHEDPEVKFNWYVDGVEVHNAKTKPREEQYASTYRVVSVLTVLHQDWLNGKEYKCKVSNKALAAPIEKTISKAKGQPREPQVCTLPPSREEMTKNQVSLSCAVKGFYPSDIAVEWESNGQPENNYKTTPPVLDSDGSFFLVSKLTVDKSRWQQGNVFSCSVMHEALHNHYTQKSLSLSPGK
light: DIELTQPPSVSVAPGQTARISCSGDNLPAYTVTWYQQKPGQAPVLVIYDDSDRPSGIPERFSGSNSGNTATLTISGTQAEDEADYYCASWDPSSGVVFGGGTKLTVLGQPKAAPSVTLFPPSSEELQANKATLVCLISDFYPGAVTVAWKADSSPVKAGVETTTPSKQSNNKYAASSYLSLTPEQWKSHRSYSCQVTHEGSTVEKTVAPTECS
chain: SQQIYGVVYGNVTFHVPSNVPLKEVLWKKQKDKVAELENSEFRAFSSFKNRVYLDTVSGSLTIYNLTSSDEDEYEMESPNITDTMKFFLYVLESGGGGSDKTHTCPPCPAPELLGGPSVFLFPPKPKDTLMISRTPEVTCVVVAVSHEDPEVKFNWYVDGVEVHNAKTKPREEQYASTYRVVSVLTVLHQDWLNGKEYKCKVSNKALAAPIEKTISKAKGQPREPQVYTLPPCREEMTKNQVSLWCLVKGFYPSDIAVEWESNGQPENNYKTTPPVLDSDGSFFLYSKLTVDKSRWQQGNVFSCSVMHEALHNHYTQKSLSLSPGK
T cell proliferation (% proliferated CD3+ T cells) [1]: did not induce any T cell proliferation

Maximum response at 100 nM hFcgammaRIA (RU) (human FcγR1A): 16 RU
B2: GADAPA-IgG1: anti-CD3 IgG1 with G237A/D265A/P329A (antibody)
heavy: EVQLVESGGGLVQPGGSLKLSCAASGFTFNTYAMNWVRQASGKGLEWVGRIRSKYNNYATYYADSVKDRFTISRDDSKSTLYLQMNSLKTEDTAVYYCVRHGNFGNSYVSWFAYWGQGTLVTVSSASTKGPSVFPLAPSSKSTSGGTAALGCLVKDYFPEPVTVSWNSGALTSGVHTFPAVLQSSGLYSLSSVVTVPSSSLGTQTYICNVNHKPSNTKVDKRVEPKSCDKTHTCPPCPAPELLGAPSVFLFPPKPKDTLMISRTPEVTCVVVAVSHEDPEVKFNWYVDGVEVHNAKTKPREEQYNSTYRVVSVLTVLHQDWLNGKEYKCKVSNKALAAPIEKTISKAKGQPREPQVYTLPPSRDELTKNQVSLTCLVKGFYPSDIAVEWESNGQPENNYKTTPPVLDSDGSFFLYSKLTVDKSRWQQGNVFSCSVMHEALHNHYTQKSLSLSPGK
light: QAVVTQEPSLTVSPGGTVTLTCRSSTGAVTTSNYANWVQQKPGQAPRGLIGGTNKRAPWTPARFSGSLLGDKAALTLSGAQPEDEAEYFCALWYSNLWVFGGGTKLTVLGQPKAAPSVTLFPPSSEELQANKATLVCLISDFYPGAVTVAWKADSSPVKAGVETTTPSKQSNNKYAASSYLSLTPEQWKSHRSYSCQVTHEGSTVEKTVAPTECS
NFAT activity (T-cell activation) [2]: some activity remaining | (%) higher molecular weight [3]: 8.0% | Melting temperature (Tm) of CH2 domain [4]: 65 °C
